{"source": "patent US20140011746A1", "about": "(WISCONSIN ALUMNI RESEARCH FOUNDATION, published 2014)", "binders": {"B1": {"name": "mSdc4ΔC2 mutant (receptor, mouse, UniProt O35988 24-194, looked up)", "chain": "ESIRETEVIDPQDLLEGRYFSGALPDDEDAGGSDDFELSGSGDLDDTEEPRPFPEVIEPLVPLDNHIPENAQPGIRVPSEPKELEENEVIPKRAPSDVGDDMSNKVSMSSTAQGSNIFERTEVLAALIVGGVVGILFAVFLILLLVYRMKKKDEGSYDLGKKPIYKKAPTN", "notes": "whole, on cells; Lacks the last four residues, EFYA; also called mSdc4 C2"}, "B2": {"name": "human syndecan-4 (receptor, UniProt P31431 19-198, looked up)", "chain": "ESIRETEVIDPQDLLEGRYFSGALPDDEDVVGPGQESDDFELSGSGDLDDLEDSMIGPEVVHPLVPLDNHIPERAGSGSQVPTEPKKLEENEVIPKRISPVEESEDVSNKVSMSSTVQGSNIFERTEVLAALIVGGIVGILFAVFLILLLMYRMKKKDEGSYDLGKKPIYKKAPTNEFYA", "notes": "whole, on cells; Endogenous protein, immunoprecipitated as a control; also called Sdc4; human Sdc4"}, "B3": {"name": "human syndecan-1 (receptor)", "chain": "QIVATNLPPEDQDGSGDDSDNFSGSGAGALQDITLSQQTPSTWKDTQLLTAIPTSPEPTGLEATAASTSTLPAGEGPKEGEAVVLPEVEPGLTAREQEATPRPRETTQLPTTHQASTTTATTAQEPATSHPHRDMQPGHHETSTPAGPSQADLHTPHTEDGGPSATERAAEDGASSQLPAAEGSGEQDFTFETSGENTAVVAVEPDRRNQSPVDQGATGASQGLLDRKEVLGGVIAGGLVGLIFAVCLVGFMLYRMKKKDEGSYSLEEPKQANGGAYQKPTKQEEFYA", "notes": "Endogenous Sdc1 of human cells, immunoprecipitated from cell lysates; also called hSdc1; Sdc1"}}, "key": {"α3β1 integrin": {"molecular_target": "T1, α3β1 integrin (human, UniProt P26006 33-1051; P05556 21-798)", "T1 construct": "whole, on cells; Endogenous receptor in cell lysates", "T1 sequence (P26006 33-1051, chain 1 of 2)": "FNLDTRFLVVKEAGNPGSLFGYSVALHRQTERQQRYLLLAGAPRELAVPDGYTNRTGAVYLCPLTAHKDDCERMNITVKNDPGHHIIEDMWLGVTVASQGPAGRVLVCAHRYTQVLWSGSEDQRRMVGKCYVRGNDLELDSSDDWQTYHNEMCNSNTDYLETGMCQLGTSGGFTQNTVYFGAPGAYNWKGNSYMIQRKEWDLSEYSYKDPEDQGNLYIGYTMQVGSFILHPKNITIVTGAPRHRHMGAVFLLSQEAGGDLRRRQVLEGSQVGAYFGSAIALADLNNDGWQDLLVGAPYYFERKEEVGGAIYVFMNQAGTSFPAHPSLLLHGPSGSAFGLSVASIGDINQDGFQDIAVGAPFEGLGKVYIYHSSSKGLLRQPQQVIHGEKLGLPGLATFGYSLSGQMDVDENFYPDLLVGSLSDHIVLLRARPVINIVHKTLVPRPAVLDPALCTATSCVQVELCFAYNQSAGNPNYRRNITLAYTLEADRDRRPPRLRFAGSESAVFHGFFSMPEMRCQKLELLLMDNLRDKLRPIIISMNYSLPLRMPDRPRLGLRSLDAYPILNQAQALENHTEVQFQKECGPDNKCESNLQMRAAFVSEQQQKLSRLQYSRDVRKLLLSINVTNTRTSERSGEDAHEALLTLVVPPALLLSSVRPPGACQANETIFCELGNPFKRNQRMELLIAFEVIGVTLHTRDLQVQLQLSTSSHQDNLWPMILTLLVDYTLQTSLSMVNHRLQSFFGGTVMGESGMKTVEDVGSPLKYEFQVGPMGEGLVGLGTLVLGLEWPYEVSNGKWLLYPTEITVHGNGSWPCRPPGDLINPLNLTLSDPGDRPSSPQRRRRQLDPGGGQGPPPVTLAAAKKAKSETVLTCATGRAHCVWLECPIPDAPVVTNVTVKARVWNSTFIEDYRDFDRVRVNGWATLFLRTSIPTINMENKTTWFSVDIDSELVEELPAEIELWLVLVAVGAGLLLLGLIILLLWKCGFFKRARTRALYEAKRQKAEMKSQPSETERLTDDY", "T1 sequence (P05556 21-798, chain 2 of 2)": "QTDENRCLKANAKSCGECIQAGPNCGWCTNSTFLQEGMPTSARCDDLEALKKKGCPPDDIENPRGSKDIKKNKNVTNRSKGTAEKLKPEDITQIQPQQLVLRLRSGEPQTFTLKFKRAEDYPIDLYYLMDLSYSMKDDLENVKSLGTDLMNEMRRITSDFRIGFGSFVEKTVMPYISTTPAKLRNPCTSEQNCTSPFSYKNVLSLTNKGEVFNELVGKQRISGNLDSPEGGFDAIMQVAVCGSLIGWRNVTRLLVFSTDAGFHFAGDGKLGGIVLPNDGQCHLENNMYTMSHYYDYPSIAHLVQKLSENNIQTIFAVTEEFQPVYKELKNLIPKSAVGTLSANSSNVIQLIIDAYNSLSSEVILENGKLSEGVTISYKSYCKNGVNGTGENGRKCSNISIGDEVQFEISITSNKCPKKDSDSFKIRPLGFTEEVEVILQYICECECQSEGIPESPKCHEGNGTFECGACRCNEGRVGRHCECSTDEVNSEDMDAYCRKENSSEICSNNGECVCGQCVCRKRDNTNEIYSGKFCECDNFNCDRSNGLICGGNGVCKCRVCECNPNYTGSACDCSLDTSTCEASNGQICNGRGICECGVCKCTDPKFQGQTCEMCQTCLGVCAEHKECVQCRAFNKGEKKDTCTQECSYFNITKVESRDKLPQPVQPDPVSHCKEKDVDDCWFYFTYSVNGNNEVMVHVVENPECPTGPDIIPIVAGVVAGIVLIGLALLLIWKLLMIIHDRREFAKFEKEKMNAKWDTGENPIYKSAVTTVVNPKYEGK", "assay": "immunoprecipitation of native mSdc4 or mSdc4ΔC2 (FIG. 6D)"}, "HER2": {"molecular_target": "T2, HER2 (human, UniProt P04626 23-1255)", "T2 construct": "whole, on cells; Endogenous protein in cell lysates; also called ErbB2; HER2/Neu", "assay": "co-immunoprecipitation from mammary cell lysates"}, "EGFR": {"molecular_target": "T3, EGFR (human, UniProt P00533 25-1210)", "T3 construct": "whole, on cells; Endogenous protein in cell lysates", "assay": "co-immunoprecipitation from cell lysates"}}}
{"binder": "B1", "values": [{"measurement": "binding result", "setting": "α3β1 integrin", "result": "binds"}]}
{"binder": "B2", "values": [{"measurement": "binding result", "setting": "HER2", "result": "no binding"}]}
{"binder": "B3", "values": [{"measurement": "binding result", "setting": "EGFR", "result": "no binding"}]}
